{"source": "IntAct's records for PubMed 29039417", "parents": {"B1": {"name": "BBSome complex member BBS2 (Homo sapiens), Q9BXC9 (parent)", "chain": "MLLPVFTLKLRHKISPRMVAIGRYDGTHPCLAAATQTGKVFIHNPHTRNQHVSASRVFQSPLESDVSLLSINQAVSCLTAGVLNPELGYDALLVGTQTNLLAYDVYNNSDLFYREVADGANAIVLGTLGDISSPLAIIGGNCALQGFNHEGSDLFWTVTGDNVNSLALCDFDGDGKKELLVGSEDFDIRVFKEDEIVAEMTETEIVTSLCPMYGSRFGYALSNGTVGVYDKTSRYWRIKSKNHAMSIHAFDLNSDGVNELITGWSNGKVDARSDRTGEVIFKDNFSSAIAGVVEGDYRMDGHIQLICCSVDGEIRGYLPGTAEMRGNLMDTSAEQDLIRELSQKKQNLLLELRNYEENAKAELASPLNEADGHRGIIPANTRLHTTLSVSLGNETQTAHTELRISTSNDTIIRAVLIFAEGIFTGESHVVHPSIHNLSSSICIPIVPPKDVPVDLHLKAFVGYRSSTQFHVFESTRQLPRFSMYALTSLDPASEPISYVNFTIAERAQRVVVWLGQNFLLPEDTHIQNAPFQVCFTSLRNGGHLHIKIKLSGEITINTDDIDLAGDIIQSMASFFAIEDLQVEADFPVYFEELRKVLVKVDEYHSVHQKLSADMADHSNLIRSLLVGAEDARLMRDMKTMKSRYMELYDLNRDLLNGYKIRCNNHTELLGNLKAVNQAIQRAGRLRVGKPKNQVITACRDAIRSNNINTLFKIMRVGTASS", "partner": "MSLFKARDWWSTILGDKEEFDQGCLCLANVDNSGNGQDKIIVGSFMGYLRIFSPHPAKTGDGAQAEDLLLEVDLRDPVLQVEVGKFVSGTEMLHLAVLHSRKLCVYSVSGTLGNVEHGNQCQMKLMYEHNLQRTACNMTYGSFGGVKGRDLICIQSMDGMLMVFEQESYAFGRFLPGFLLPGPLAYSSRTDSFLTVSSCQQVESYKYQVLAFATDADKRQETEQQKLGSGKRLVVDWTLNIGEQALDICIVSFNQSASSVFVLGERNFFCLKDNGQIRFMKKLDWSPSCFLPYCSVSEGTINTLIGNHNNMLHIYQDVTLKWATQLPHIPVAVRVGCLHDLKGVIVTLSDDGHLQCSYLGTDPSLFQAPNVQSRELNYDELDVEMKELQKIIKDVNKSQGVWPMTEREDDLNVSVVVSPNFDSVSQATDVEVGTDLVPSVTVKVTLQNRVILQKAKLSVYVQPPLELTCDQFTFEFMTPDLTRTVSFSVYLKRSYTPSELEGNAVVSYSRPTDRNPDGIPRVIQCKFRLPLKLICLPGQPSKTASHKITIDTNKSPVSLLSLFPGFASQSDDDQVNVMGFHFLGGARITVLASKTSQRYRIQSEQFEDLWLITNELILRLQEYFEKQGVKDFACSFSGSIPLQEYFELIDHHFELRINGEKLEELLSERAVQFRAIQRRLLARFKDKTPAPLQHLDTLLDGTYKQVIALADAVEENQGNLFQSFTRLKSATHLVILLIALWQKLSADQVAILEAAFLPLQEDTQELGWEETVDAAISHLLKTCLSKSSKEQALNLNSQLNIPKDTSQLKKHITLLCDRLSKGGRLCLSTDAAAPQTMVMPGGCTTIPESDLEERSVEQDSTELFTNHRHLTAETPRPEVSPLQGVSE"}}, "data": [{"variants_of": "B1", "details": "with pthb1_human BBS9, Q3SYG4", "values": [{"variant": "Y589E", "effect of a mutation on the interaction": "with no effect"}, {"variant": "S605K", "effect of a mutation on the interaction": "with no effect"}, {"variant": "S605E", "effect of a mutation on the interaction": "with no effect"}, {"variant": "S605A", "effect of a mutation on the interaction": "with no effect"}, {"variant": "F586E", "effect of a mutation on the interaction": "with no effect"}, {"variant": "F586K", "effect of a mutation on the interaction": "with no effect"}, {"variant": "F586A", "effect of a mutation on the interaction": "with no effect"}, {"variant": "S570E", "effect of a mutation on the interaction": "with no effect"}, {"variant": "S570A", "effect of a mutation on the interaction": "with no effect"}, {"variant": "S570K", "effect of a mutation on the interaction": "with no effect"}, {"variant": "S570L", "effect of a mutation on the interaction": "disrupting interaction strength"}, {"variant": "K595A", "effect of a mutation on the interaction": "with no effect"}, {"variant": "K595E", "effect of a mutation on the interaction": "with no effect"}, {"variant": "I577E", "effect of a mutation on the interaction": "with no effect"}, {"variant": "I577K", "effect of a mutation on the interaction": "with no effect"}, {"variant": "I577A", "effect of a mutation on the interaction": "with no effect"}, {"variant": "E602A", "effect of a mutation on the interaction": "with no effect"}, {"variant": "E602K", "effect of a mutation on the interaction": "with no effect"}, {"variant": "D579E", "effect of a mutation on the interaction": "with no effect"}, {"variant": "D579A", "effect of a mutation on the interaction": "with no effect"}, {"variant": "D579K", "effect of a mutation on the interaction": "with no effect"}, {"variant": "M571K", "effect of a mutation on the interaction": "with no effect"}, {"variant": "M571E", "effect of a mutation on the interaction": "with no effect"}, {"variant": "M571A", "effect of a mutation on the interaction": "with no effect"}, {"variant": "K609E", "effect of a mutation on the interaction": "with no effect"}, {"variant": "K609A", "effect of a mutation on the interaction": "with no effect"}, {"variant": "Q581K", "effect of a mutation on the interaction": "with no effect"}, {"variant": "Q581E", "effect of a mutation on the interaction": "with no effect"}, {"variant": "Q581A", "effect of a mutation on the interaction": "with no effect"}, {"variant": "R622A", "effect of a mutation on the interaction": "with no effect"}, {"variant": "R622K", "effect of a mutation on the interaction": "with no effect"}, {"variant": "R622E", "effect of a mutation on the interaction": "with no effect"}, {"variant": "A584E", "effect of a mutation on the interaction": "with no effect"}, {"variant": "A584K", "effect of a mutation on the interaction": "with no effect"}, {"variant": "I568K", "effect of a mutation on the interaction": "with no effect"}, {"variant": "S611E", "effect of a mutation on the interaction": "with no effect"}, {"variant": "S611A", "effect of a mutation on the interaction": "with no effect"}, {"variant": "S611K", "effect of a mutation on the interaction": "with no effect"}, {"variant": "V588E", "effect of a mutation on the interaction": "with no effect"}, {"variant": "V588K", "effect of a mutation on the interaction": "with no effect"}, {"variant": "V588A", "effect of a mutation on the interaction": "with no effect"}, {"variant": "F574E", "effect of a mutation on the interaction": "with no effect"}, {"variant": "F574A", "effect of a mutation on the interaction": "with no effect"}, {"variant": "F574K", "effect of a mutation on the interaction": "with no effect"}, {"variant": "N619E", "effect of a mutation on the interaction": "with no effect"}, {"variant": "N619K", "effect of a mutation on the interaction": "with no effect"}, {"variant": "N619A", "effect of a mutation on the interaction": "with no effect"}, {"variant": "M614A", "effect of a mutation on the interaction": "with no effect"}, {"variant": "M614K", "effect of a mutation on the interaction": "with no effect"}, {"variant": "M614E", "effect of a mutation on the interaction": "with no effect"}, {"variant": "S623K", "effect of a mutation on the interaction": "with no effect"}, {"variant": "S623A", "effect of a mutation on the interaction": "with no effect"}, {"variant": "S623E", "effect of a mutation on the interaction": "with no effect"}, {"variant": "R594K", "effect of a mutation on the interaction": "with no effect"}, {"variant": "R594A", "effect of a mutation on the interaction": "with no effect"}, {"variant": "R594E", "effect of a mutation on the interaction": "with no effect"}, {"variant": "R632K", "effect of a mutation on the interaction": "with no effect"}, {"variant": "R632A", "effect of a mutation on the interaction": "with no effect"}, {"variant": "R632E", "effect of a mutation on the interaction": "with no effect"}, {"variant": "Q608E", "effect of a mutation on the interaction": "with no effect"}, {"variant": "Q608K", "effect of a mutation on the interaction": "with no effect"}, {"variant": "Q608A", "effect of a mutation on the interaction": "with no effect"}, {"variant": "D616A", "effect of a mutation on the interaction": "with no effect"}, {"variant": "D616K", "effect of a mutation on the interaction": "with no effect"}, {"variant": "D616E", "effect of a mutation on the interaction": "with no effect"}, {"variant": "A576K", "effect of a mutation on the interaction": "with no effect"}, {"variant": "A576E", "effect of a mutation on the interaction": "with no effect"}, {"variant": "H607A", "effect of a mutation on the interaction": "with no effect"}, {"variant": "H607E", "effect of a mutation on the interaction": "with no effect"}, {"variant": "H607K", "effect of a mutation on the interaction": "with no effect"}, {"variant": "A631E", "effect of a mutation on the interaction": "with no effect"}, {"variant": "A631K", "effect of a mutation on the interaction": "with no effect"}, {"variant": "V606K", "effect of a mutation on the interaction": "with no effect"}, {"variant": "V606E", "effect of a mutation on the interaction": "with no effect"}, {"variant": "V606A", "effect of a mutation on the interaction": "with no effect"}, {"variant": "M634K", "effect of a mutation on the interaction": "with no effect"}, {"variant": "M634E", "effect of a mutation on the interaction": "with no effect"}, {"variant": "M634A", "effect of a mutation on the interaction": "with no effect"}, {"variant": "L610A", "effect of a mutation on the interaction": "with no effect"}, {"variant": "L610K", "effect of a mutation on the interaction": "with no effect"}, {"variant": "L610E", "effect of a mutation on the interaction": "with no effect"}, {"variant": "E578K", "effect of a mutation on the interaction": "with no effect"}, {"variant": "E578A", "effect of a mutation on the interaction": "with no effect"}, {"variant": "A612E", "effect of a mutation on the interaction": "with no effect"}, {"variant": "A612K", "effect of a mutation on the interaction": "with no effect"}, {"variant": "Q569E", "effect of a mutation on the interaction": "with no effect"}, {"variant": "Q569K", "effect of a mutation on the interaction": "with no effect"}, {"variant": "Q569A", "effect of a mutation on the interaction": "with no effect"}, {"variant": "D585A", "effect of a mutation on the interaction": "with no effect"}, {"variant": "D585K", "effect of a mutation on the interaction": "with no effect"}, {"variant": "D585E", "effect of a mutation on the interaction": "with no effect"}, {"variant": "R635E", "effect of a mutation on the interaction": "with no effect"}, {"variant": "R635K", "effect of a mutation on the interaction": "with no effect"}, {"variant": "R635A", "effect of a mutation on the interaction": "with no effect"}]}]}
